Experimental data from paper PMC5670201 (2017).

Target: nab-paclitaxel nanoparticles (human, UniProt P02768 25-609)
Experiment: BLI

B1: biotinylated bevacizumab (antibody, V domains shown)
VH: EVQLVESGGGLVQPGGSLRLSCAASGYTFTNYGMNWVRQAPGKGLEWVGWINTYTGEPTYAADFKRRFTFSLDTSKSTAYLQMNSLRAEDTAVYYCAKYPHYYGSSHWYFDVWGQGTLVTVSS
VL: DIQMTQSPSSLSASVGDRVTITCSASQDISNYLNWYQQKPGKAPKVLIYFTSSLHSGVPSRFSGSGSGTDFTLTISSLQPEDFATYYCQQYSTVPWTFGQGTKVEIK
modifications: biotin (sites not given) | biotin (sites not given)
B1 was tested, and the Kd was 4.51 µM.
